Source: patent US20070190574A1, “Diagnostic method for identifying carriers of the Marburg I variant of factor VII-activating protease (FSAP) on the basis of differential modulation of FSAP activity” (DADE BEHRING MARBURG GmbH, priority 2005, published 2007)
Values joined by “and” are separate entries in the source; they are usually repeats but may differ in a detail not shown here. Equal values may be shown once.

How the values were obtained:
Type in all cases: biochemical
FSAP wild type [1] = biological target: T1, FSAP wild type (Homo sapiens, UniProt Q14520); assay: Prourokinase-activating activity of FSAP with and without aprotinin (S-2444), wild-type plasma samples
T1 construct: found for a plasma sample of a non-carrier (wild type); from tissue
Protocol: (§1) An anti-FSAP antibody produced via the hybridoma cell line DSM ACC2453 was used as solid phase-associated binding partner having affinity for FSAP. Polystyrene microtiter plates (MTPs) were used as solid phase for carrying out the heterogeneous detection method. Anti-FSAP antibodies in 50 mM NaHCO3, pH 8.2, were associated onto the polystyrene solid phase with a coating volume of 120 μl per well of the MTP and a coating concentration of 20 μg of antibody per ml at room temperature overnight. Unbound antibodies were removed by washing three times with 50 mM sodium phosphate-buffered isotonic NaCl solution, 0.02% Tween® 20, pH 6.5.
(§2) In each case 100 μl of a plasma sample to be determined were pipetted in a dilution of 1:80 in sample buffer (20 mM sodium citrate, pH 6.0, with 150 mM NaCl, 100 mM L-arginine monohydrochloride, 1% bovine serum albumin, 0.1% Tweene® 80, 100 I.U. of heparin/ml) into the wells. After incubation at +37° C. for one hour, unbound constituents were removed by washing three times with 50 mM sodium phosphate-buffered isotonic NaCl solution, 0.02% Tweene® 20, pH 6.5.
(§3) The change in absorption (OD) of the reaction mixtures was followed at a wavelength of 405 nm. A differentiation between carriers and non-carriers of the FSAP MR I variant is possible through the formation of a quotient between vmax of the reaction kinetics of a sample without added aprotinin (vmax0) and with added aprotinin (vmax aprotinin). The following applies thereto: • FSAP wild type vmax0/FSAP wild type vmax aprotinin>FSAP MR I vmax0/FSAP MR I vmax aprotinin.
(§4) The maximum slope of the time-conversion plots was determined by linear regression in a sufficiently linear region of the time-conversion plot and afforded the maximum reaction rate vmax of a reaction in mOD/min.

FSAP MR I variant [2] = biological target: T2, FSAP MR I variant (Homo sapiens, UniProt Q14520, G534E); assay: Prourokinase-activating activity of FSAP with and without aprotinin (S-2444), MR I carrier plasma samples
T2 construct: found for a plasma sample of a heterozygous carrier of the MR I polymorphism; from tissue
Protocol: as §1, §2, §3, §4

FSAP wild type [3] = biological target: T1, FSAP wild type; assay: Amidolytic activity of FSAP for S-2288 with and without aprotinin, wild-type plasma samples
Protocol: (§5) The microtiter plates used were the same as described in example 1. In each case 100 μl of a plasma sample to be determined were pipetted in a dilution of 1:50 in sample buffer (see example 1) into the wells. After incubation at +37° C. for one hour, unbound constituents were removed by washing three times with 50 mM sodium phosphate-buffered isotonic NaCl solution, 0.02% Tweene® 20, pH 6.5.
(§6) In order to reduce evaporation effects during the relatively long incubation time in the MTP, a layer of mineral oil was put on top.
as §3, with “nm, and the maximum reaction rate vmax was determined (see example 1). Differentiation” for “nm. A differentiation”, “ratio (quotient)” for “quotient”

FSAP MR I variant [4] = biological target: T2, FSAP MR I variant; assay: Amidolytic activity of FSAP for S-2288 with and without aprotinin, MR I carrier plasma samples
Protocol: as §5, §6
as §3, with “nm, and the maximum reaction rate vmax was determined (see example 1). Differentiation” for “nm. A differentiation”, “ratio (quotient)” for “quotient”

FSAP wild type [5] = biological target: T1, FSAP wild type; assay: Change in amidolytic activity of FSAP (S-2288) on addition of activity modulator during the reaction, wild-type sample
Protocol: as §5, with “1:15” for “1:50”, “as in example 1.” for “with 50 mM sodium phosphate-buffered isotonic NaCl solution, 0.02% Tweene® 20, pH 6.5.”
(§7) To determine the amidolytic activity of FSAP, at time t0 in each case 80 μl of the chromogenic substrate S-2288 (1.5 mmol/L; Chromogenix Instrumentation Laboratory S.p.A., Milano, Italy) in a 50:50 mixture of test buffer I and test buffer II (see example 1for test buffer I and 11) were put into the MTP wells and incubated at +37° C. in a photometer. After about 60 minutes, aprotinin was added in a final concentration of 2.95 KIU/ml or the respective monoclonal antibody (MAb) was added in a final concentration of about 60 μg/ml per reaction mixture. The change in absorption of the reaction mixtures was followed at a wavelength of 405 nm, and the maximum reaction rate vmax was determined (see example 1). In order to reduce evaporation effects during the relatively long incubation time, a layer of mineral oil was put on top.
Differentiation between carriers and non-carriers of the FSAP MR I variant is possible through forming a ratio, for example the quotient of the maximum reaction rate before addition of the differential activity modulator (vmax) and the maximum reaction rate after addition of the differential activity modulator (vmax aprotinin).
Three independent measurements were carried out on the sample of the non-carrier of the FSAP MR I variant (wild-type sample; WT). Six independent measurements were carried out on the sample of the heterozygous carrier of the FSAP MR I variant (MR I). The averages (Av.) of vmax/vmax activity modulator (vmax/vmaxA) and the standard deviations relating to the population (SD) were calculated. The negative control, i.e. addition of a corresponding volume of test buffer I and test buffer II in the ratio 50:50 without activity modulator afforded an Av. vmax/vmaxA of 0.81 +/− 0.12. […]

FSAP MR I variant [6] = biological target: T2, FSAP MR I variant; assay: Change in amidolytic activity of FSAP (S-2288) on addition of activity modulator during the reaction, MR I sample; details: vmax before/after modulator added at about 60 min; aprotinin 2.95 KIU/ml, MAb about 60 μg/ml; six measurements; negative control 0.81
Protocol: as §5, with “1:15” for “1:50”, “as in example 1.” for “with 50 mM sodium phosphate-buffered isotonic NaCl solution, 0.02% Tweene® 20, pH 6.5.”
as §7, with “In order to reduce evaporation effects during the relatively long incubation time, a layer of mineral oil was put on top.” left out
Three independent measurements were carried out on the sample of the non-carrier of the FSAP MR I variant (wild-type sample; WT). […] The averages (Av.) of vmax/vmax activity modulator (vmax/vmaxA) and the standard deviations relating to the population (SD) were calculated. […]

[7] = average over WT samples, 0.055 KIU/ml aprotinin
[8] = without vs 0.055 KIU/ml aprotinin, WT samples, one value per sample
[9] = average over MR I samples, 0.055 KIU/ml aprotinin
[10] = without vs 0.055 KIU/ml aprotinin, MR I samples, one value per sample

T1 sequence (Q14520 24-560): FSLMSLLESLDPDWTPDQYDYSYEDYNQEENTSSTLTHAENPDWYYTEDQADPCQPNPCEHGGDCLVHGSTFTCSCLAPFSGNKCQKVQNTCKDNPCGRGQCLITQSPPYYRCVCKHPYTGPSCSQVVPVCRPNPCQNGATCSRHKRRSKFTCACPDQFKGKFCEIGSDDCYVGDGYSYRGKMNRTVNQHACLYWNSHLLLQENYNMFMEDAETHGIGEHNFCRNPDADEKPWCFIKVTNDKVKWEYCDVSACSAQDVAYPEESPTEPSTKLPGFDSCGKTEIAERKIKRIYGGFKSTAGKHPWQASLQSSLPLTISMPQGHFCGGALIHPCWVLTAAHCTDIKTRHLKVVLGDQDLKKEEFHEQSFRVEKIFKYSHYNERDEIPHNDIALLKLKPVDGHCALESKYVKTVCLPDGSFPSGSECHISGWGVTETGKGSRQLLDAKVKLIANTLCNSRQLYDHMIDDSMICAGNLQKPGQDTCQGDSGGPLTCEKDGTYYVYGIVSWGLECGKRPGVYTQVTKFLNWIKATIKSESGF
T2 sequence (Q14520 314-560 G534E limits assumed): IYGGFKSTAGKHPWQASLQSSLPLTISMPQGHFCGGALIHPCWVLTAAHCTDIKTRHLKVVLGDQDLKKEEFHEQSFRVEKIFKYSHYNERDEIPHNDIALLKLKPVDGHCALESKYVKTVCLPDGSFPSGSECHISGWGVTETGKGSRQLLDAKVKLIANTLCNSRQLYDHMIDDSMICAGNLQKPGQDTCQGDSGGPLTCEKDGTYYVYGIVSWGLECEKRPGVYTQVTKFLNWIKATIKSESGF
T2 sequence (Q14520 24-313 partner limits assumed): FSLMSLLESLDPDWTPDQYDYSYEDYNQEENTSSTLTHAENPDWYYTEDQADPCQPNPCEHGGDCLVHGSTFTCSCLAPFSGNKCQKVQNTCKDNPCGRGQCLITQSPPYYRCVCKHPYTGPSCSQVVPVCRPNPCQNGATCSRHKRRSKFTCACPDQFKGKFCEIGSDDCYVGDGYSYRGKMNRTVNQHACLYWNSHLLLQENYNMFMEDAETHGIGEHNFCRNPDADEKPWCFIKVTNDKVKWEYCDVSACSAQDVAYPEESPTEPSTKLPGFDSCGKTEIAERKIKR

Substance: aprotinin
- vmax aprotinin (FSAP wild type [1]; 0.055 KIU/ml aprotinin, WT plasma samples 1:80, S-2444, one value per sample): 13.82 mOD/min and 12.09 mOD/min and 8.81 mOD/min and 11.84 mOD/min
- inhibition of prourokinase-activating activity of FSAP, non-carrier sample versus heterozygous carrier sample (FSAP wild type [1]; FIGS. 1 and 2, 0.036 and 0.055 KIU/ml final aprotinin concentration): substantially more strongly
- Av. vmax0/vmax aprotinin (FSAP wild type [1]; [7]): 2.01
- Av. vmax0 − vmax aprotinin (FSAP wild type [1]; [7]): 11.37 mOD/min
- vmax0/vmax aprotinin (FSAP wild type [1]; [8]): 1.90 and 1.78 and 2.41 and 1.95
- vmax0 − vmax aprotinin (FSAP wild type [1]; [8]): 12.42 mOD/min and 9.38 mOD/min and 12.44 mOD/min and 11.23 mOD/min
- vmax aprotinin (FSAP MR I variant [2]; 0.055 KIU/ml aprotinin, MR I plasma samples 1:80, S-2444, one value per sample): 2.00 mOD/min and 1.84 mOD/min and 2.45 mOD/min
- Av. vmax0/vmax aprotinin (FSAP MR I variant [2]; [9]): 1.43
- Av. vmax0 − vmax aprotinin (FSAP MR I variant [2]; [9]): 0.90 mOD/min
- vmax0/vmax aprotinin (FSAP MR I variant [2]; [10]): 1.52 and 1.35 and 1.41
- vmax0 − vmax aprotinin (FSAP MR I variant [2]; [10]): 1.04 mOD/min and 0.64 mOD/min and 1.01 mOD/min
- vmax aprotinin (FSAP wild type [3]; 0.055 KIU/ml aprotinin, WT plasma samples 1:50, S-2288, one value per sample): 6.90 mOD/min and 9.57 mOD/min and 7.52 mOD/min
- inhibition of amidolytic activity of FSAP, non-carrier sample versus heterozygous carrier sample (FSAP wild type [3]; FIGS. 3 and 4, 0.036 and 0.055 KIU/ml final aprotinin concentration): considerably more strongly
- Av. vmax0/vmax aprotinin (FSAP wild type [3]; [7]): 1.48
- Av. vmax0 − vmax aprotinin (FSAP wild type [3]; [7]): 3.81 mOD/min
- vmax0/vmax aprotinin (FSAP wild type [3]; [8]): 1.45 and 1.47 and 1.51
- vmax0 − vmax aprotinin (FSAP wild type [3]; [8]): 3.09 mOD/min and 4.49 mOD/min and 3.86 mOD/min
- vmax aprotinin (FSAP MR I variant [4]; 0.055 KIU/ml aprotinin, MR I plasma samples 1:50, S-2288, one value per sample): 1.22 mOD/min and 0.94 mOD/min and 1.87 mOD/min
- Av. vmax0/vmax aprotinin (FSAP MR I variant [4]; [9]): 1.04
- Av. vmax0 − vmax aprotinin (FSAP MR I variant [4]; [9]): 0.07 mOD/min
- vmax0/vmax aprotinin (FSAP MR I variant [4]; [10]): 1.02 and 1.03 and 1.08
- inhibition of FSAP amidolytic activity after addition of aprotinin in a single reaction mixture, non-carrier versus heterozygous carrier (FSAP wild type [5]; FIG. 5, aprotinin added at a reaction time of about one hour): inhibited more strongly in the sample of the non-carrier
- WT/MRI quotient of Av. vmax/vmax A (FSAP wild type [5]; WT sample versus heterozygous MR I sample, aprotinin 2.95 KIU/ml, MAb about 60 μg/ml): 1.35
- WT Av. vmax/vmax A (FSAP wild type [5]; vmax before/after modulator added at about 60 min, aprotinin 2.95 KIU/ml, MAb about 60 μg/ml, three measurements, negative control 0.81): 16.72
- MRI Av. vmax/vmax A (FSAP MR I variant [6]): 12.36
